Reference: publication PMC9606215
pKd: −log10 of the molar value.

How the values were obtained:
complement C3b [1] = target: complement C3b (UniProt P01024); assay: SPR; activated C3 convertase C3bBb formation: C3b amine-coupled to a CM5 chip; CFB flowed at 1.0-4.0 uM with complement factor D (1 mM [sic] CFD); 10 mM HEPES pH 7.4, 50 mM NaCl, 3 mM MgCl2, 0.005% surfactant P20; Biacore
complement C3b [2] = target: complement C3b (UniProt P01024); assay: SPR; C3b amine-coupled to a CM5 chip; CFB flowed at 0.125-4.0 μM, 30 μl/min; 10 mM HEPES pH 7.4, 50 mM NaCl, 3 mM MgCl2, 0.005% surfactant P20; without CFD (proenzyme C3bB formation); two state interaction model
complement C3b [3] = target: complement C3b (UniProt P01024); assay: SPR; proenzyme C3bB formation: C3b amine-coupled to a CM5 chip; CFB flowed at 0.125-4.0 uM, 30 ul/min; 10 mM HEPES pH 7.4, 50 mM NaCl, 3 mM MgCl2, 0.005% surfactant P20; without CFD; Biacore
complement C3b [4] = target: complement C3b (UniProt P01024); assay: SPR; C3b amine-coupled to a CM5 chip; CFB as analyte at 1.0-4.0 μM in 10 mM HEPES pH 7.4, 50 mM NaCl, 3 mM MgCl2, 1 mM CFD, 0.005% surfactant P20 (activated C3 convertase C3bBb formation); two state interaction model

**Q.** Which koff (complement C3b [1]) does the source give for “complement factor B, R32W variant (32W) (from UniProt P00751 26-764) (natural protein)” here?
**A.** 0.00236 s⁻¹

**Q.** What about the kon (complement C3b [1]) of the same substance?
**A.** 7420 M⁻¹ s⁻¹

**Q.** And the pKd (complement C3b [2])?
**A.** 5.65

**Q.** What about the koff (complement C3b [3]) of the same substance?
**A.** 0.015 s⁻¹

**Q.** And the kon (complement C3b [3])?
**A.** 6700 M⁻¹ s⁻¹

**Q.** What about the pKd (complement C3b [4]) of the same substance?
**A.** 6.50

**Q.** Which results are given for “complement factor B, wild type (32R) (from UniProt P00751 26-764) (natural protein)”?
**A.** koff (complement C3b [1]): 0.00247 s⁻¹; kon (complement C3b [1]): 32000 M⁻¹ s⁻¹; pKd (complement C3b [2]): 6.21; pKd (complement C3b [3]): 6.22; koff (complement C3b [3]): 0.0088 s⁻¹; kon (complement C3b [3]): 14500 M⁻¹ s⁻¹; pKd (complement C3b [4]): 7.11
